Like-named read-outs stand apart in the source and are kept apart here.
B1: LZTS2 (protein, UniProt Q9BRK4 1-669, looked up)
Leucine zipper putative tumor …: MAIVQTLPVPLEPAPEAATAPQAPVMGSVSSLISGRPCPGGPAPPRHHGPPGPTFFRQQDGLLRGGYEAQEPLCPAVPPRKAVPVTSFTYINEDFRTESPPSPSSDVEDAREQRAHNAHLRGPPPKLIPVSGKLEKNMEKILIRPTAFKPVLPKPRGAPSLPSFMGPRATGLSGSQGSLTQLFGGPASSSSSSSSSSAADKPLAFSGWASGCPSGTLSDSGRNSLSSLPTYSTGGAEPTTSSPGGHLPSHGSGRGALPGPARGVPTGPSHSDSGRSSSSKSTGSLGGRVAGGLLGSGTRASPDSSSCGERSPPPPPPPPSDEALLHCVLEGKLRDREAELQQLRDSLDENEATMCQAYEERQRHWQREREALREDCAAQAQRAQRAQQLLQLQVFQLQQEKRQLQDDFAQLLQEREQLERRCATLEREQRELGPRLEETKWEVCQKSGEISLLKQQLKESQAELVQKGSELVALRVALREARATLRVSEGRARGLQEAARARELELEACSQELQRHRQEAEQLREKAGQLDAEAAGLREPPVPPATADPFLLAESDEAKVQRAAAGVGGSLRAQVERLRVELQRERRRGEEQRDSFEGERLAWQAEKEQVIRYQKQLQHNYIQMYRRNRQLEQELQQLSLELEARELADLGLAEQAPCICLEEITATEI
B2: LDB1 (protein, UniProt Q86U70 2-411, looked up)
LIM domain-binding protein 1: SVGCACPGCSSKSFKLYSPKEPPNGNAFPPFHPGTMLDRDVGPTPMYPPTYLEPGIGRHTPYGNQTDYRIFELNKRLQNWTEECDNLWWDAFTTEFFEDDAMLTITFCLEDGPKRYTIGRTLIPRYFRSIFEGGATELYYVLKHPKEAFHSNFVSLDCDQGSMVTQHGKPMFTQVCVEGRLYLEFMFDDMMRIKTWHFSIRQHRELIPRSILAMHAQDPQMLDQLSKNITRCGLSNSTLNYLRLCVILEPMQELMSRHKTYSLSPRDCLKTCLFQKWQRMVAPPAEPTRQQPSKRRKRKMSGGSTMSSGGGNTNNSNSKKKSPASTFALSSQVPDVMVVGEPTLMGGEFGDEDERLITRLENTQFDAANGIDDEDSFNNSPALGANSPWNSKPPSSQESKSENPTSQASQ
B3: L3MBTL3 (protein, UniProt Q96JM7 1-780, looked up)
Lethal(3)malignant brain …: MTESASSTSGQEFDVFSVMDWKDGVGTLPGSDLKFRVNEFGALEVITDENEMENVKKATATTTWMVPTAQEAPTSPPSSRPVFPPAYWTSPPGCPTVFSEKTGMPFRLKDPVKVEGLQFCENCCQYGNVDECLSGGNYCSQNCARHIKDKDQKEERDVEEDNEEEDPKCSRKKKPKLSLKADTKEDGEERDDEMENKQDVRILRGSQRARRKRRGDSAVLKQGLPPKGKKAWCWASYLEEEKAVAVPAKLFKEHQSFPYNKNGFKVGMKLEGVDPEHQSVYCVLTVAEVCGYRIKLHFDGYSDCYDFWVNADALDIHPVGWCEKTGHKLHPPKGYKEEEFNWQTYLKTCKAQAAPKSLFENQNITVIPSGFRVGMKLEAVDKKNPSFICVATVTDMVDNRFLVHFDNWDESYDYWCEASSPHIHPVGWCKEHRRTLITPPGYPNVKHFSWDKYLEETNSLPAPARAFKVKPPHGFQKKMKLEVVDKRNPMFIRVATVADTDDHRVKVHFDGWNNCYDYWIDADSPDIHPVGWCSKTGHPLQPPLSPLELMEASEHGGCSTPGCKGIGHFKRARHLGPHSAANCPYSEINLNKDRIFPDRLSGEMPPASPSFPRNKRTDANESSSSPEIRDQHADDVKEDFEERTESEMRTSHEARGAREEPTVQQAQRRSAVFLSFKSPIPCLPLRWEQQSKLLPTVAGIPASKVSKWSTDEVSEFIQSLPGCEEHGKVFKDEQIDGEAFLLMTQTDIVKIMSIKLGPALKIFNSILMFKAAEKNSHNEL
B4: LRRCC1 (protein, UniProt Q9C099 1-1032, looked up)
Leucine-rich repeat and …: MEAAAAVVAAEAEVENEDGDSSCGDVCFMDKGLQSISELSLDSTLHAVNLHCNNISKIEAIDHIWNLQHLDLSSNQISRIEGLNTLTKLCTLNLSCNLITKVEGLEELINLTRLNVSYNHIDDLSGLIPLHGIKHKLRYIDLHSNRIDSIHHLLQCMVGLHFLTNLILEKDGDDNPVCRLPGYRAVILQTLPQLRILDCKNIFGEPVNLTEINSSQLQCLEGLLDNLVSSDSPLNISEDEIIDRMPVITAPIDELVPLEQFASTPSDAVLTSFMSVCQSSEPEKNNHENDLQNEIKLQKLDDQILQLLNETSNSIDNVLEKDPRPKRDTDITSESDYGNRKECNRKVPRRSKIPYDAKTIQTIKHHNKNYNSFVSCNRKMKPPYLKELYVSSSLANCPMLQESEKPKTEIIKVDQSHSEDNTYQSLVEQLDQEREKRWRAEQAENKLMDYIDELHKHANEKEDIHSLALLTTDRLKEIIFRERNSKGQLEVMVHKLQNEIKKLTVELMKAKDQQEDHLKHLRTLEKTLEKMERQKRQQQAAQIRLIQEVELKASAADREIYLLRTSLHREREQAQQLHQLLALKEQEHRKELETREFFTDADFQDALAKEIAKEEKKHEQMIKEYQEKIDVLSQQYMDLENEFRIALTVEARRFQDVKDGFENVATELAKSKHALIWAQRKENESSSLIKDLTCMVKEQKTKLAEVSKLKQETAANLQNQINTLEILIEDDKQKSIQIELLKHEKVQLISELAAKESLIFGLRTERKVWGHELAQQGSSLAQNRGKLEAQIESLSRENECLRKTNESDSDALRIKCKIIDDQTETIRKLKDCLQEKDEHIKRLQEKITEIEKCTQEQLDEKSSQLDEVLEKLERHNERKEKLKQQLKGKEVELEEIRKAYSTLNRKWHDKGELLCHLETQVKEVKEKFENKEKKLKAERDKSIELQKNAMEKLHSMDDAFKRQVDAIVEAHQAEIAQLANEKQKCIDSANLKVHQIEKEMRELLEETCKNKKTMEAKIKQLAFALNEIQQDM
B5: KIF7 (protein, UniProt Q2M1P5 1-1343, looked up)
Kinesin-like protein KIF7: MGLEAQRLPGAEEAPVRVALRVRPLLPKELLHGHQSCLQVEPGLGRVTLGRDRHFGFHVVLAEDAGQEAVYQACVQPLLEAFFEGFNATVFAYGQTGSGKTYTMGEASVASLLEDEQGIVPRAMAEAFKLIDENDLLDCLVHVSYLEVYKEEFRDLLEVGTASRDIQLREDERGNVVLCGVKEVDVEGLDEVLSLLEMGNAARHTGATHLNHLSSRSHTVFTVTLEQRGRAPSRLPRPAPGQLLVSKFHFVDLAGSERVLKTGSTGERLKESIQINSSLLALGNVISALGDPQRRGSHIPYRDSKITRILKDSLGGNAKTVMIACVSPSSSDFDETLNTLNYASRAQNIRNRATVNWRPEAERPPEETASGARGPPRHRSETRIIHRGRRAPGPATASAAAAMRLGAECARYRACTDAAYSLLRELQAEPGLPGAAARKVRDWLCAVEGERSALSSASGPDSGIESASVEDQAAQGAGGRKEDEGAQQLLTLQNQVARLEEENRDFLAALEDAMEQYKLQSDRLREQQEEMVELRLRLELVRPGWGGPRLLNGLPPGSFVPRPHTAPLGGAHAHVLGMVPPACLPGDEVGSEQRGEQVTNGREAGAELLTEVNRLGSGSSAASEEEEEEEEPPRRTLHLRRNRISNCSQRAGARPGSLPERKGPELCLEELDAAIPGSRAVGGSKARVQARQVPPATASEWRLAQAQQKIRELAINIRMKEELIGELVRTGKAAQALNRQHSQRIRELEQEAEQVRAELSEGQRQLRELEGKELQDAGERSRLQEFRRRVAAAQSQVQVLKEKKQATERLVSLSAQSEKRLQELERNVQLMRQQQGQLQRRLREETEQKRRLEAEMSKRQHRVKELELKHEQQQKILKIKTEEIAAFQRKRRSGSNGSVVSLEQQQKIEEQKKWLDQEMEKVLQQRRALEELGEELHKREAILAKKEALMQEKTGLESKRLRSSQALNEDIVRVSSRLEHLEKELSEKSGQLRQGSAQSQQQIRGEIDSLRQEKDSLLKQRLEIDGKLRQGSLLSPEEERTLFQLDEAIEALDAAIEYKNEAITCRQRVLRASASLLSQCEMNLMAKLSYLSSSETRALLCKYFDKVVTLREEQHQQQIAFSELEMQLEEQQRLVYWLEVALERQRLEMDRQLTLQQKEHEQNMQLLLQQSRDHLGEGLADSRRQYEARIQALEKELGRYMWINQELKQKLGGVNAVGHSRGGEKRSLCSEGRQAPGNEDELHLAPELLWLSPLTEGAPRTREETRDLVHAPLPLTWKRSSLCGEEQGSPEELRQREAAEPLVGRVLPVGEAGLPWNFGPLSKPRRELRRASPGMIDVRKNPL
B6: LPXN (protein, UniProt O60711 1-386, looked up)
Leupaxin: MEELDALLEELERSTLQDSDEYSNPAPLPLDQHSRKETNLDETSEILSIQDNTSPLPAQLVYTTNIQELNVYSEAQEPKESPPPSKTSAAAQLDELMAHLTEMQAKVAVRADAGKKHLPDKQDHKASLDSMLGGLEQELQDLGIATVPKGHCASCQKPIAGKVIHALGQSWHPEHFVCTHCKEEIGSSPFFERSGLAYCPNDYHQLFSPRCAYCAAPILDKVLTAMNQTWHPEHFFCSHCGEVFGAEGFHEKDKKPYCRKDFLAMFSPKCGGCNRPVLENYLSAMDTVWHPECFVCGDCFTSFSTGSFFELDGRPFCELHYHHRRGTLCHGCGQPITGRCISAMGYKFHPEHFVCAFCLTQLSKGIFREQNDKTYCQPCFNKLFPL
B7: MAGED1 (protein, UniProt Q9Y5V3 1-778, looked up)
Melanoma-associated antigen D1: MAQKMDCGAGLLGFQAEASVEDSALLMQTLMEAIQISEAPPTNQATAAASPQSSQPPTANEMADIQVSAAAARPKSAFKVQNATTKGPNGVYDFSQAHNAKDVPNTQPKAAFKSQNATPKGPNAAYDFSQAATTGELAANKSEMAFKAQNATTKVGPNATYNFSQSLNANDLANSRPKTPFKAWNDTTKAPTADTQTQNVNQAKMATSQADIETDPGISEPDGATAQTSADGSQAQNLESRTIIRGKRTRKINNLNVEENSSGDQRRAPLAAGTWRSAPVPVTTQNPPGAPPNVLWQTPLAWQNPSGWQNQTARQTPPARQSPPARQTPPAWQNPVAWQNPVIWPNPVIWQNPVIWPNPIVWPGPVVWPNPLAWQNPPGWQTPPGWQTPPGWQGPPDWQGPPDWPLPPDWPLPPDWPLPTDWPLPPDWIPADWPIPPDWQNLRPSPNLRPSPNSRASQNPGAAQPRDVALLQERANKLVKYLMLKDYTKVPIKRSEMLRDIIREYTDVYPEIIERACFVLEKKFGIQLKEIDKEEHLYILISTPESLAGILGTTKDTPKLGLLLVILGVIFMNGNRASEAVLWEALRKMGLRPGVRHPLLGDLRKLLTYEFVKQKYLDYRRVPNSNPPEYEFLWGLRSYHETSKMKVLRFIAEVQKRDPRDWTAQFMEAADEALDALDAAAAEAEARAEARTRMGIGDEAVSGPWSWDDIEFELLTWDEEGDFGDPWSRIPFTFWARYHQNARSRFPQTFAGPIIGPGGTASANFAANFGAIGFFWVE

What was measured:
[1] = molecular target: T1, HCV ORFs (Gal4-DB fusions) (Hepatitis C virus genotype 1b, UniProt Q9WMX2); format: binding, HCV genotype 1b, isolate con1; conditions: human protein as prey
T1 construct: expressed in transfected cells; host or cells: Saccharomyces cerevisiae MAV203 (IMAP1) / AH109 (IMAP2)

[2] = test system: HCV ORFs (Gal4-DB fusions); format: binding, HCV genotype 1b, isolate con1; conditions: human protein listed by gene symbol; the value names the HCV protein it interacts with
HCV proteins = molecular target: T2, HCV proteins (Hepatitis C virus genotype 1b, UniProt Q9WMX2); assay: Validation by Y2H pairwise matrices; format: binding;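 also: yeast two-hybrid pairwise tests of interactions first found in Y2H screens of HCV bait proteins against human cDNA libraries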
T2 construct: expressed in transfected cells

[3] = validation of interaction with HCV protein NS3
[4] = validation of interaction with HCV protein CORE
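For IMAP Y2H IMAP1 (number of IST) in this document: yeast two-hybrid screens using HCV genotype 1b proteins fused to Gal4-DB as baits against prey cDNA libraries from human spleen and foetal brain, IMAP1 via transformation and IMAP2 via mating.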
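For IMAP Y2H IMAP2 (number of IST) in this document: yeast two-hybrid screens using HCV genotype 1b proteins fused to Gal4-DB as baits against prey cDNA libraries from human spleen and foetal brain, IMAP1 via transformation and IMAP2 via mating.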
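For Interaction with viral protein in this document: yeast two-hybrid screens using HCV genotype 1b proteins fused to Gal4-DB as baits against prey cDNA libraries from human spleen and foetal brain, IMAP1 via transformation and IMAP2 via mating.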

Molecule | IMAP Y2H IMAP1 (number of IST) ([1]; HCV protein NS3 as bait) | Interaction with viral protein [2] | Y2H matrices (HCV proteins; [3]) | IMAP Y2H IMAP2 (number of IST) ([1]; HCV protein NS3 as bait) | IMAP Y2H IMAP1 (number of IST) ([1]; HCV protein CORE as bait) | Y2H matrices (HCV proteins; [4]) | IMAP Y2H IMAP2 (number of IST) ([1]; HCV protein CORE as bait)
B1 | 8 | NS3 | + | – | – | – | –
B2 | 1 | NS3 | + | – | – | – | –
B3 | 4 | NS3 | + | 8 | – | – | –
B4 | 1 | NS3 | + | – | – | – | –
B5 | 1 | NS3 | + | – | – | – | –
B6 | – | CORE | – | – | 1 | + | –
B7 | 1 | NS3 and CORE | + | – | 1 | + | 2

From patent US20110091994A1, “Methods for Screening Compounds for Treating and/or Preventing an Hepatitis C Virus Infection” (priority 2008, published 2011)
